# Target: T1, soluble monomeric FcγRIIIA (extracellular region joined to linker-AVITAG), allele not stated (human, UniProt P08637 17-208)
# T1 construct: extracellular domain; also called FcRIIIA; CD16A; not shown: linker-AVITAG
# Test: ELISA
# T1 sequence (P08637 17-208): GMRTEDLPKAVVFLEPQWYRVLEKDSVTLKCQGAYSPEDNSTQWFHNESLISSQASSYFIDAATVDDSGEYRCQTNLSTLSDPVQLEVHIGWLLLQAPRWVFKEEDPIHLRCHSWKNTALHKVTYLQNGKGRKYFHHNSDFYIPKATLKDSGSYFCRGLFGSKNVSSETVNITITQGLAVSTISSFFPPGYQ
row,Binder,Binding to FcγRIIIA (ELISA)
1,"IgG1 Fc mutant D280E, S354F, A431D, L441I (antibody) heavy: ASTKGPSVFPLAPSSKSTSGGTAALGCLVKDYFPEPVTVSWNSGALTSGVHTFPAVLQSSGLYSLSSVVTVPSSSLGTQTYICNVNHKPSNTKVDKKVEPKSCDKTHTCPPCPAPELLGGPSVFLFPPKPKDTLMISRTPEVTCVVVDVSHEDPEVKFNWYVEGVEVHNAKTKPREEQYNSTYRVVSVLTVLHQDWLNGKEYKCKVSNKALPAPIEKTISKAKGQPREPQVYTLPPFRDELTKNQVSLTCLVKGFYPSDIAVEWESNGQPENNYKTTPPVLDSDGSFFLYSKLTVDKSRWQQGNVFSCSVMHEDLHNHYTQKSISLSPGK",3 fold increase
2,IgG1 Fc mutant P291S; K288E; H268L: A141V (antibody) heavy: ASTKGPSVFPLAPSSKSTSGGTAVLGCLVKDYFPEPVTVSWNSGALTSGVHTFPAVLQSSGLYSLSSVVTVPSSSLGTQTYICNVNHKPSNTKVDKKVEPKSCDKTHTCPPCPAPELLGGPSVFLFPPKPKDTLMISRTPEVTCVVVDVSLEDPEVKFNWYVDGVEVHNAETKSREEQYNSTYRVVSVLTVLHQDWLNGKEYKCKVSNKALPAPIEKTISKAKGQPREPQVYTLPPSRDELTKNQVSLTCLVKGFYPSDIAVEWESNGQPENNYKTTPPVLDSDGSFFLYSKLTVDKSRWQQGNVFSCSVMHEALHNHYTQKSLSLSPGK,0.5 fold decrease
3,"IgG1 Fc mutant K334E, T359N, T366S, Q386R (antibody) heavy: ASTKGPSVFPLAPSSKSTSGGTAALGCLVKDYFPEPVTVSWNSGALTSGVHTFPAVLQSSGLYSLSSVVTVPSSSLGTQTYICNVNHKPSNTKVDKKVEPKSCDKTHTCPPCPAPELLGGPSVFLFPPKPKDTLMISRTPEVTCVVVDVSHEDPEVKFNWYVDGVEVHNAKTKPREEQYNSTYRVVSVLTVLHQDWLNGKEYKCKVSNKALPAPIEETISKAKGQPREPQVYTLPPSRDELNKNQVSLSCLVKGFYPSDIAVEWESNGRPENNYKTTPPVLDSDGSFFLYSKLTVDKSRWQQGNVFSCSVMHEALHNHYTQKSLSLSPGK",1 fold increase
4,"IgG1 Fc mutant P247L, A431V, S442F (antibody) heavy: ASTKGPSVFPLAPSSKSTSGGTAALGCLVKDYFPEPVTVSWNSGALTSGVHTFPAVLQSSGLYSLSSVVTVPSSSLGTQTYICNVNHKPSNTKVDKKVEPKSCDKTHTCPPCPAPELLGGPSVFLFPPKLKDTLMISRTPEVTCVVVDVSHEDPEVKFNWYVDGVEVHNAKTKPREEQYNSTYRVVSVLTVLHQDWLNGKEYKCKVSNKALPAPIEKTISKAKGQPREPQVYTLPPSRDELTKNQVSLTCLVKGFYPSDIAVEWESNGQPENNYKTTPPVLDSDGSFFLYSKLTVDKSRWQQGNVFSCSVMHEVLHNHYTQKSLFLSPGK",1 fold
5,"IgG1 Fc mutant F275I, K334N, V348M (antibody) heavy: ASTKGPSVFPLAPSSKSTSGGTAALGCLVKDYFPEPVTVSWNSGALTSGVHTFPAVLQSSGLYSLSSVVTVPSSSLGTQTYICNVNHKPSNTKVDKKVEPKSCDKTHTCPPCPAPELLGGPSVFLFPPKPKDTLMISRTPEVTCVVVDVSHEDPEVKINWYVDGVEVHNAKTKPREEQYNSTYRVVSVLTVLHQDWLNGKEYKCKVSNKALPAPIENTISKAKGQPREPQMYTLPPSRDELTKNQVSLTCLVKGFYPSDIAVEWESNGQPENNYKTTPPVLDSDGSFFLYSKLTVDKSRWQQGNVFSCSVMHEALHNHYTQKSLSLSPGK",0.5 fold increase
6,"IgG1 Fc mutant F243L, R255L, E318K (antibody) heavy: ASTKGPSVFPLAPSSKSTSGGTAALGCLVKDYFPEPVTVSWNSGALTSGVHTFPAVLQSSGLYSLSSVVTVPSSSLGTQTYICNVNHKPSNTKVDKKVEPKSCDKTHTCPPCPAPELLGGPSVFLLPPKPKDTLMISLTPEVTCVVVDVSHEDPEVKFNWYVDGVEVHNAKTKPREEQYNSTYRVVSVLTVLHQDWLNGKKYKCKVSNKALPAPIEKTISKAKGQPREPQVYTLPPSRDELTKNQVSLTCLVKGFYPSDIAVEWESNGQPENNYKTTPPVLDSDGSFFLYSKLTVDKSRWQQGNVFSCSVMHEALHNHYTQKSLSLSPGK",1 fold increase

# Source: patent US20090098124A1 (MacroGenics, published 2009)
